According to the PETadex activity labels:

Legend:
[1] = substrate: PET; test: Proxy for plastic degradation [Released Products (MHET,BHET, TPA)]; settings: pH 8
[2] = substrate: PBSA; test: Proxy for plastic degradation [kcat/Km (catalytic efficiency)] (mM⁻¹s⁻¹); settings: pH 8.2
[3] = substrate: PET; test: Proxy for plastic degradation [Absorbance @ 240nm]

B1: unnamed (protein)
chain: MGSSHHHHHHSSGLVPRGSHMRGPNPTAASLEASAGPFTVRSFTVSRPSGYGAGTVYYPTNAGGTVGAIAIVPGYTARQSSIKWWGPRLASHGFVVITIDTNSTLDQPSSRSSQQMAALRQVASLNGTSSSPIYGKVDTARMGVMGWSMGGGGSLISAANNPSLKAAAPQAPWDSSTNFSSVTVPTLIFACENDSIAPVNSSALPIYDSMSRNAKQFLEINGGSHSCANSGNSNQALIGKKGVAWMKRFMDNDTRYSTFACENPNSTRVSDFRTANCSLEDPAANKARKEAELAAATAEQ
[1]; 4 °C
  Proxy for plastic degradation: 100 µM
[1]; 16 °C
  Proxy for plastic degradation: 410 µM
[1]; 30 °C
  Proxy for plastic degradation: 1100 µM
[1]; 37 °C
  Proxy for plastic degradation: 300 µM
[1]; 55 °C
  Proxy for plastic degradation: 180 µM
[1]; 70 °C
  Proxy for plastic degradation: 100 µM

B2: unnamed (protein)
chain: MLAVWDDTLAHPVRGRDRELATLTGLLDNTSGRRGTGMVVVGAPGTGKTTLLNALVEHAEGFQVLWAEGSAAESDVRFAGVEQLLRPLESLVSLLPDDRGRALRPVWGLPADDEGQVGSLAVPAAVSALLGLAARRQPVLCCVDSAHLLDSASLSALAFAARRAHHAGVVFVFAVDCTADTEVDTETSVWGELPRLRLGRLDDEAAHALLRDRLGASLPHDLADSLLDVGHGAPLALVELAESLTPEHLCGRAAPPSSPPPEGRLCRTLGHRLSALSEGAREVVALAGISEGLDEQLTCRVLPHHRSTLAEAVRSGLVVLDGDTVRTAADTVPSALLAALTPQDIVQAHHRMAEAAEAVGDRDRAVWHRAAIAMAPDPALVADLDDIAERARAAAAHATAAAASERAAALTSDTKERARRLVAAATDHWASGRPQRARTALRLAAPLSDSVLGARVSRLAGEIELRRGDPSVAATKLISTARQLASTHRTLAASALMLAGEASFVAGDNARYCLTAKDAALLCGPEEWPATRVVREHFTAMSATFRGEHSAAAAPLRSLVELGETTPDPTAKTLASQAAFTLGDAERSRDLALQAVVCARARGDESGVPWALVYAALSALLSGQLSAASTTALEGLQVARSLGQSNSAVDHVTVLAMLAALQGDEETALQRLQAANTELAERGLGRPSALATWAAACVDLAHDRPAEAFDRFRRMTVGRSRHCVPLRVMAVPHFVEAAVRCGEKEVARRSLVTFEHWANTTGGTARVALAHRCHALLAEQDGEAQERFTEAVRLHREADAPYDLAVTQLLYASHLRRSRRPKQARELLREAVQLFDDLGATHWVERASQELRACGHPGRGKPHLSRGLSPQQERIAQLVADGATNKEIATQLFISHRTVDHHLRNIFAKLDVRSRVQLAALFR
[2]
  Proxy for plastic degradation: 430

B3: unnamed (protein)
chain: MLAVWDDTLAHPVRGRDRELATLTGLLDNTSGRRGTGMVVVGAPGTGKTTLLNALVEHAEGFQVLWAEGSAAESDVRFAGVEQLLRPLESLVSLLPDDRGRALRPVWGLPADDEGQVGSLAVPAAVSALLGLAARRQPVLCCVDSAHLLDSASLSALAFAARRAHHAGVVFVFAVDCTADTEVDTETSVWGELPRLRLGRLDDEAAHALLRDRLGASLPHDLADSLLDVGHGDPLALVELAESLTPEHLCGRAAPPSSPPPEGRLCRTLGHRLSALSEGAREVVALAGISEGLDEQLTCRVLPHHRSTLAEAVRSGLVVLDGDTVRTAADTVPSALLAALTPQDIVQAHHRMAEAAEAVGDRDRAVWHRAAIAMAPDPALVADLDDIAERARAAAAHATAAAASERAAALTSDTKERARRLVAAATDHWASGRPQRARTALRLAAPLSDSVLGARVSRLAGEIELRRGDPSVAATKLISTARQLASTHRTLAASALMLAGEASFVAGDNARYCLTAKDAALLCGPEEWPATRVVREHFTAMSATFRGEHSAAAAPLRSLVELGETTPDPTAKTLASQAAFTLGDAERSRDLALQAVVCARARGDESGVPWALVYAALSALLSGQLSAASTTALEGLQVARSLGQSNSAVDHVTVLAMLAALQGDEETALQRLQAANTELAERGLGRPSALATWAAACVDLAHDRPAEAFDRFRRMTVGRSRHCVPLRVMAVPHFVEAAVRCGEKEVARRSLVTFEHWANTTGGTARVALAHRCHALLAEQDGEAQERFTEAVRLHREADAPYDLAVTQLLYASHLRRSRRPKQARELLREAVQLFDDLGATHWVERASQELRACGHPGRGKPHLSRGLSPQQERIAQLVADGATNKEIATQLFISHRTVDHHLRNIFAKLDVRSRVQLAALFR
[2]
  Proxy for plastic degradation: 330

B4: unnamed (protein)
chain: MFQRVWALTAALMLMLSLGATSSHAAQNPHERGPDPSNSYIEQARGSYSVSQRSISRLGSDGFRDGTMYYPTSTADGRFGVVAISPGYTASESTIAWLGPRLASFGFVVVTINTDSRYDQPRQRATQLHAALDHAIGDSVVGPRIDTSRQAVMGHSMGGGGALQAAEERDEIRAAVPLTPWNLKKGWSGVDAATLVIGAENDAIAPVRSHSIPFYESLTNAERRAYLELRREGHFAPNSSNTLIAKYSVSWLKRYVDNDLRYDQFIDPGPRTGITTGVSDYRLG
[3]; pH 8, 0 h
  Proxy for plastic degradation: 0 µM
[3]; pH 8, 10 °C
  Proxy for plastic degradation: 0.012 AU
[3]; pH 8, 28 °C
  Proxy for plastic degradation: 0.016 AU
[3]; pH 8, 37 °C
  Proxy for plastic degradation: 0.045 AU
[3]; pH 8, 45 °C
  Proxy for plastic degradation: 0.073 AU
[3]; pH 8.5
  Proxy for plastic degradation: 0.199 AU
[3]; pH 9.5
  Proxy for plastic degradation: 0.085 AU
[3]; pH 10.5
  Proxy for plastic degradation: 0.015 AU
